From the DeepSol protein solubility set

Assay: soluble on expression in E. coli; label from the status in PepcDB or PDB records

Sequence | soluble on expression in E. coli
MGSDKIHHHHHHMSKTLKEITDQKNELKKFFENFVLNLEKTEIFSEIQKNLTDEVLFVGCGSSYNLALTISYYFERVLKIRTKAIPAGEVAFQKIPDLEERGLAFLFSRTGNTTEVLLANDVLKKRNHRTIGITIEEESRLAKESDLPLVFPVREEAIVMTKSFSMILLSLMFLADKIAGNSTERFSELVGYSPEFFDISWKVIEKIDLKEHDHFVFLGMSEFFGVSLESALKCIEMSLTFSEAYSTLEYRHGPKALVKKGTLVFMQKVSGMDEQEKRLRKELESLGATVLEVGEGGDIPVSNDWKSAFLRTVPAQILGYQKAISRGISPDKPPHLEKTVVL | soluble
MGSDKIHHHHHHMSKVFSPFQFDNSFVRSMEGFFEPWQGARVPAPAMVCFNQQLADELGMDADAMEDSRLAAFFCGMLTAEGSEPVAMAYAGHQFGGFSPRLGDGRALLLGEVKDIHGRRRDLHLKGSGRTNFSRGGDGKAVLGPVLREYLMGEAMHALGIPTTRALAAVTTGEDIYRDGIKPGAVLARVASSHIRVGTFEYAAARGDHEGLRELVNYSLKRHYPELEDEQTPALALLNSVSRAQAKLVAKWMGVGFIHGVMNTDNVTISGETIDYGPCAFMDTYDARTVFSSIDHEGRYAYGNQPGIARWNLARFAEALLPLLAEDESEALAHAQTVLDGFAEVYTNEWLAVFAAKFGLKTAQDGDLELFMDFLTLLGELKLDFTRSFRALANSLGDTAAAGIEALTADSARFAPWLTRWHERLGREYASQSDFASDARALMQGVNPVYIPRNHLLQGALDSAEAGDMAPFERLLEVVCRPYEELAGYGAYALGAPEDFGPFRTFCGT | not soluble
MGSDKIHHHHHHMSLTITKLQKKIADQAVLNNITFSLSLGQVVGLVGPNGIGKTTIFRTVTHQYRADGGTIELDEQDLTDHPEQRENLFYLDNQHLFFRKYRLDKIAGDYQLLYATFDQARFMALIEKFGLQGSQRFQSLSKGYQALVMVALALASGAPYVFLDEPFDGLDLLIRERIVNLVVDAVADGKRTFLIASHNLVELDGLSDRVLFVKAGRISQDLTLEDVRQQAIKLQLVFKTKAIPDVIR | not soluble
MGSDKIHHHHHHMSLTPVLDKIDSDVSAATDRLLELLRIPSISTDPAYKADCDAAADWLVKDLNSIGIKAEKRETPGHPMVVGHVGEENTKGPHLLFYGHYDVQPVDPLNLWNTPPFEPQLEETPNGTVIRGRGASDDKGQLMTFVEACRAWQAVHGTLPCRITFFFEGEEESGSPSLIPFLEAAKEELSADIALICDTSMVARGVPLVASQLRGMMKDEFTLIGPKIDLHSGHYGGPGLNPLREISHIIASFHDPDTGAVAVEGFYEGVPEVPADILRQWEGCGFDEKDYLSNAGYTEAHGEKKYSTLEQQWARPTLEINGLWGGYQGAGTKTVIPSEAHCKITCRLVGDMDPADLRQKIRKHVEDRLPTDCTVKWDLDLDGAPAYVIDTTRPEFEAARGALTEEWNREAVFSGMGGSIPVAGYFKSILGMDAMLIGFANEDDAIHSPNEKYDLESFHKGIRSWARVLDALSKA | not soluble
MGSDKIHHHHHHMSNAEWLNALETPFLLIDEFRFQRNIDRLYQRTKNLGSQVRPHLKTLRSIEAGRYLLKDSASPATVSTLAEAEAFAGAGYTNLLYAVGIAPHKLPRIANLIHKGVNLHILLDSVEQARAVTDYALANNVTFSVFIEIDCDGHRGGIPPESDALLELAQQIDGNGATLTGLLAHAGESYACRTDEAIRAAARAECAAINIAGRRVRALGIACPVLSVGATPTAHFAEDLTGITEVRAGVFTTFDLVMKNVGVCSLDDIALSVVSTVIGHNREKGWVFIDAGWMALSRDRGTASQAKDYGYGLVCDLHGSPYHDLCVTVTNQEHGIIALPTDSGFSVDNFPVGTRLRILPNHACATAAMHQHYQVLKSHRHEQETWQRITGW | not soluble
MGSDKIHHHHHHMSNLPLISVVIPTYGREEILRDSIVDVLNQDYPKYEVLVVDQSPKHKPEIETYLEEVAAAGKVKWFRLDWASLPGARNYAIRRASGEIILFIDDDVKLKPGFLAAHAKNYVQNPDVGSVAGRVFDRMKLGDSGGNLEIEYLPPEAMDPGVAWYHIDLVHTIKPQQVLTARGCNMSFRREIFTKHGLRFDERFRGSAVREESDFCLRLRQTGYKIWYDPEADLIHLGEETGGCHDISMRSLKYQFTFYHNHFLLGLKNLNFSQALRLYARLFDCHVLGRPPCHKSGSPIKIITRGIFYILGFFRALGSVIQSNWHDGQIYSRLDQESIIKSQESMVNS | not soluble
MGSDKIHHHHHHMSQDTILLIWDRIGDYHLSRVKACEKLLGAPVFTADLAGTDNLYKWDSIAKTTHTVLSSKPAEQSDIWNRFRTFRRIIKTHSIAVVAMPYGRTEYHIFLLYARLKGIRTIIFSESWYSRGKLKDFLKSLLLKSLGNYFFVSGKRAFDHFTKNYKINPEKIETGYSVVDNNHFQRRLFTEKKYVLTIARYSEEKNLSFLIDSYAKSVISNTYNLMLIGEGPLRPALQSQIDILGLSDRVQLAGWVPYAALPKAYAEAVVFVLPSSFEPWGLVVNEAMSAGLPILVSDACGCMPELVAEGVNGWSFNSNTQQELIERLNAFAALSEKGIEITGKNSMQLIRNYTPDTWAGSIARLAQAGR | not soluble
MGSDKIHHHHHHMSQRIGVIDMGTNTFHLLITDIVNDRPHTLVNEKSAVGLGKGGITKGFITEEAMDRALDTLKKFRVILDEHAVVHVIATGTSAVRSGSNKQVLIDRIKKEVNIDVEVIDGAREAELIFRGVQQAVPMEDHISLAMDIGGGSVEFIIGNKNEILWKQSFEIGGQRLIDRFHVHDPMREDDRVMMHNYFDEVLVPLEKAINTWRPTQLIGCSGTFDTLAEMNIQHHREKIALEKQTSYLLSLPDFNRLRKQLVASTRRERLAIAGMIELRADMVVVAICLIEHVLKLVSTNAITVSTYSLKEGVLYTMLDGVKVGS | not soluble
MGSDKIHHHHHHMSRIVNVKLSLKRYEYEKPFHITGSVSSESRNVEVEIVLESGVKGYGEASPSFRVNGERVEALLAIENAVREMITGIDVRNYARIFEITDRLFGFPSLKAAVQFATLDALSQELGTQVCYLLGGKRDEIETDKTVGIDTVENRVKEAKKIFEEGFRVIKIKVGENLKEDIEAVEEIAKVTRGAKYIVDANMGYTQKEAVEFARAVYQKGIDIAVYEQPVRREDIEGLKFVRFHSPFPVAADESARTKFDVMRLVKEEAVDYVNIKLMKSGISDALAIVEIAESSGLKLMIGCMGESSLGINQSVHFALGTGAFEFHDLDSHLMLKEEVFRGKFIQDGPRMRVKDQ | not soluble
MGSDKIHHHHHHMSSCGKNENPQEMNRRKFLKVFGGGAVASSAALYGCAPKNEPGAAVALGEVPTDKMTYRQHPTNGDKVSILGYGCMRWPLKQGSDGKDQIDQEAVNRLVDYAIEHGVNYFDTSPVYVQGMSEKATGIALARHPRNSYYLATKLSNFQNYTRENSLAMYRQSFRDLQTDYLDYYLLHSIGGGNGIELFNDRYINNGMLDFLVKEREAGRIRNLGWSFHGDVKVFDYVLDMGVKWDFVQIQLNYLDWKHASGRNVNADYLYGELEKRGIPAVIMEPLLGGRLSNVPDHIVARLKQQRPENSVASWAFRFAGSPDGVLTVLSGMTYMEHLQDNIRTYSPLIPVTDEEKDFLEETAQLMMKYPTIPCNDCKYCMPCPYALDIPGILLHYNKCVNEGNVPKSAQDENYAKARRAFLVGYDRSVPKLRQANHCTGCEQCNPHCPQGIDIPKEMQRIDKFVEELKVNG | not soluble
MGSDKIHHHHHHMSSILRLDRLRQFIGELATLLDSRPDESTLLAQAHPLLAELVHQDDWLPEDCARPDPQRYQQYLLHVDSRQRFSVVSFVWGPGQITPVHDHRVWGLIGMLRGAEYSQPYAFDAGGRPHPSGARRRLEPGEVEALSPRIGDVHQVSNAFSDRTSISIHVYGANIGAVRRAVFSAEGEEKPFISGYSNSRLPNIWDLSKENPA | not soluble
MGSDKIHHHHHHMSSKAEKDIKWGIAPIGWRNDDIPSIGKDNNLQQLLSDIVVAGFQGTEVGGFFPGPEKLNYELKLRNLEIAGQWFSSYIIRDGIEKASEAFEKHCQYLKAINAPVAVVSEQTYTIQRSDTANIFKDKPYFTDKEWDEVCKGLNHYGEIAAKYGLKVAYHHHMGTGIQTKEETDRLMANTDPKLVGLLYDTGHIAVSDGDYMALLNAHIDRVVHVHFKDVRRSKEEECRAKGLTFQGSFLNGMFTVPGDGDLDFKPVYDKLIANNYKGWIVVEAEQDPSKANPLEMAQIAHRYIKQHLIEN | not soluble
MGSDKIHHHHHHMSSKRLVIVGGGITGLAAAYYAERAFPDLNITLLEAGERLGGKVATYREDGFTIERGPDSYVARKHILTDLIEAIGLGEKLVRNNTSQAFILDTGGLHPIPKGAVMGIPTDLDLFRQTTLLTEEEKQEVADLLLHPSDSLRIPEQDIPLGEYLRPRLGDALVEKLIEPLLSGIYAGNIDQMSTFATYPQFVANEQKAGSLFEGMRLMRPLDQLPQTPQTTIKATGQFLSLETGLESLIERLEEVLERSEIRLETPLLAISREDGRYRLKTDHGPEYADYVLLTIPHPQVVQLLPDAHLPELEQLTTHSTATVTMIFDQQQSLPIEGTGFVVNRRAPYSITACTAIDQKWNHSAPDHTVLRAFVGRPGNDHLVHESDEVLQQAVLQDLEKICGRTLEPKQVIISRLMDGLPAYTVGHADRIQRVREEVLAQYPGIYLAGLAYDGVGLPDCVASAKTMIESIELEQSHTDESVNET | not soluble
MGSDKIHHHHHHMSSSQQIAKNARKAGNILKTISNEGRSDILYKIHDALKANAHAIEEANKIDLAVAKETGLADSLLKRLDLFKGDKFEVMLQGIKDVAELEDPVGKVKMARELDDGLTLYQVTAPVGVLLVIFESRPEVIANITALSIKSGNAAILKGGKESVNTFREMAKIVNDTIAQFQSETGVPVGSVQLIETRQDVSDLLDQDEYIDLVVPRGSNALVRKIKDTTKIPVLGHADGICSIYLDEDADLIKAKRISLDAKTNYPAGCNAMETLLINPKFSKWWEVLENLTLEGGVTIHATKDLKTAYFDKLNELGKLTEAIQCKTVDADEEQDFDKEFLSLDLAAKFVTSTESAIQHINTHSSRHTDAIVTENKANAEKFMKGVDSSGVYWNASTRFADGFRYGFGAEVGISTSKIHARGPVGLDGLVSYQYQIRG | not soluble
MGSDKIHHHHHHMSTEHQLLVGLLKKLKDDALVLPTLPEVAMRVQEVVSRQDSSLKQVADIIGQDAAISARIIKVANSALYSRGNKAESINAAVSRIGLVQIKSITTSVAMEQLFISTNEMVWEVMDEVWKTSIEVTASSCAMLEMYNKRHPTKKLDRDTLTLAGLVHNIGALPVLTEAEVHPELFGRIDDLRSLVRKMQGPIGRAVLKTWDFAPEVMEVVERWADLHYLPEKVTYLDFIRSAAFYTGELRAGEELEERLGVFAQRGLPVTPEDLASDEFINMYHSIMQSYE | not soluble
MGSDKIHHHHHHMSTLLRQHAEQQFAEELHELKQNETNPVPENWEMSPQSVVTYLMGGKLKNGFEVSPKYIGNRRLMEIAVATLVTDRALLLYGLPGTAKSWVSEHIAAAISGDSTLIVQGTAGTGEEAIRYGWNYARLLAEGPSVGALVQTPVMKAMQEGKIGRIEELTRIGSDVQDTLITILSEKTLPIPELNTEVQAIRGFNIIATANNRDKGVNDLSSALKRRFNTVILPLPDSIDEEIDIVRRRVESFEKVMQLPAEKPALEEIRRVVTIFRELRQGATADGKTKLKTPSGTLSTAEAISVVNNGLAMAGYFGDGEIHAEDLVSGILGAVVKDPVQDKVVWQEYMETVVKNRDGWKDIYRASRDMI | not soluble
MGSDKIHHHHHHMSTPGSTPPPSVADQPHPLPLANGHPISGATADAAAQWLTLLMSDEMTDSDYQCWQQWRAAHPDHERAWQHIEAVTARFRELPSTAAYKSLSPLTNPVSAGKPGSPGRRKAMGTLLWLGTAGVGSMLVSRTQIWQQTVADYRTGTGEQRAIYLADGTHIMLNTYSAIDVAFDAQHRTIRLITGDILITTHPVHTPISDPRPFIVETAEGRIRALGTRFTVSQRKGRTHVAVLEHAVEVTPAAAPDRQYILPAGQQLSFTRHTLNNATTLDKQTTGWTQGQIIADNIRLGDFITDLGRYRTGLLRCDPAVAELRLSGVFPLDDTDRILETLPSVLPVRVRLRTRYWVIVEAAS | not soluble
